According to PMC4492089, “FOXM1 binds directly to non-consensus sequences in the human genome”:

Tests used:
Details in all cases: protein: recombinant; tags: GST; label: 5' 6FAM on top strand; blunt
[1] = target: T1, FOXM1B DBD WT (GST fusion) (UniProt Q08050-2 235-327); test: fluorescence polarization; FP: 50 mM Tris-HCl pH 7.5, 5 mM MgCl2, 1 mM DTT, 2% glycerol; protein 80 nM-5 uM; temperature not stated
T1 sequence: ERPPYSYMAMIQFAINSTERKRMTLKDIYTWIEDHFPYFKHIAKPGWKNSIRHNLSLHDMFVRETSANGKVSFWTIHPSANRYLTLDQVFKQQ

[2] = target: T1, FOXM1B DBD WT (GST fusion); test: EMSA; FP: 50 mM Tris-HCl pH 7.5, 5 mM MgCl2, 1 mM DTT, 2% glycerol; protein 80 nM-5 uM; temperature not stated
[3] = target: T2, FOXM1 DBD WT (GST fusion) (UniProt Q08050 235-327); test: fluorescence polarization; FP: 50 mM Tris-HCl pH 7.5, 5 mM MgCl2, 1 mM DTT, 2% glycerol; protein 80 nM-5 uM; temperature not stated
T2 sequence: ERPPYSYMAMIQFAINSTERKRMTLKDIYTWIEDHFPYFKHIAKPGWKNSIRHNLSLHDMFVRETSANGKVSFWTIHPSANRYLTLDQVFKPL

FOXM1 DBD H287A = target: T3, FOXM1 DBD H287A (UniProt Q08050 235-327, H287A); test: as above
T3 sequence: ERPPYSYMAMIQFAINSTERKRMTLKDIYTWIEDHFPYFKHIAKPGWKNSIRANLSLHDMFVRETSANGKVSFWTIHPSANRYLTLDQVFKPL

FOXM1 DBD S290A = target: T4, FOXM1 DBD S290A (UniProt Q08050 235-327, S290A); test: fluorescence polarization; up to 5 uM protein; FP: 50 mM Tris-HCl pH 7.5, 5 mM MgCl2, 1 mM DTT, 2% glycerol; protein 80 nM-5 uM; temperature not stated
T4 sequence: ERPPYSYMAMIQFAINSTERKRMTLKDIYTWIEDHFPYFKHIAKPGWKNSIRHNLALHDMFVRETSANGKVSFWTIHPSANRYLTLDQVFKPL

FOXM1 DBD R286A = target: T5, FOXM1 DBD R286A (UniProt Q08050 235-327, R286A); test: as above
T5 sequence: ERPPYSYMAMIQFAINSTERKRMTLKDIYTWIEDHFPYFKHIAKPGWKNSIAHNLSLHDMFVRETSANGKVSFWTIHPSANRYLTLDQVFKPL

B1: MYC P2 TATA box 16-mer (dsDNA)
DNA 1: TGAGTATAAAAGCCGG
DNA 2: CCGGCTTTTATACTCA
Kd [1]: 177 ± 79 nM

B2: HP1BP3 16-mer (dsDNA)
DNA 1: CCTCAGCCAATCGGGG
DNA 2: CCCCGATTGGCTGAGG
Kd [1]: 489 ± 233 nM

B3: FKH consensus 16-mer (dsDNA)
DNA 1: AAACAAACAAACAATC
DNA 2: GATTGTTTGTTTGTTT
Kd [2]: 346 ± 24 nM | Kd [1]: 224 ± 45 nM | Kd [3]: 1100 ± 20 nM | Kd (FOXM1 DBD H287A): 3.04 ± 0.1 µM | binding result (FOXM1 DBD S290A): no binding | binding result (FOXM1 DBD R286A): no binding

B4: CCNB2 16-mer (dsDNA)
DNA 1: ACGCGGTATTTGAATC
DNA 2: GATTCAAATACCGCGT
Kd [1]: 436 ± 147 nM
